Measurements as given in the supplement of paper PMC10567573.

B1: TNXB (parent)
chain: FSEIRETSAKVNWMPPPSRADSFK

Variants of: B1
Test: protein stability index of a GFP-peptide fusion (GPS, HEK-293T) (PSI 1-6); higher = more stable
Details: c terminus: a fixed tail appended
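Further: lentivirally expressed fusions sorted by FACS into six bins by GFP to DsRed ratio, PSI derived from sequencing read proportions per bin multiplied by bin number.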

In order of falling protein stability index:
1. FSEIRETSAKVNEMPPPSRADSFK [W13E]  4.94
2. FSEIRETSAKVNDMPPPSRADSFK [W13D]  4.8
3. FSEIRETSAKVNWMPPPSRADSDK [F23D]  4.56
4. FSEIRETSAKVNKMPPPSRADSFK [W13K]  4.55
5. FSEIRETSAKVNWMPPPSRADSPK [F23P]  4.55
6. FSEIRETSAKVNIMPPPSRADSFK [W13I]  4.47
7. FSEGRETSAKVNWMPPPSRADSFK [I4G]  4.34
8. FSEIRETSAKVNRMPPPSRADSFK [W13R]  4.21
9. FSEPRETSAKVNWMPPPSRADSFK [I4P]  4.16
10. FSEIRETSAKDNWMPPPSRADSFK [V11D]  4.12
11. FSEIRETSAKVNWMPPPSRADSHK [F23H]  4.12
12. FSEIRETSEKVNWMPPPSRADSFK [A9E]  4.04
13. FSEIRETSAKVNWMPPPSRADSAK [F23A]  4.04
14. FSEIRETSAKPNWMPPPSRADSFK [V11P]  4.03
15. FSEIRETSAKVNTMPPPSRADSFK [W13T]  4.03
16. FSESRETSAKVNWMPPPSRADSFK [I4S]  4.01
17. FSEIRETSAKENWMPPPSRADSFK [V11E]  4
18. FSEIRETSAKVNMMPPPSRADSFK [W13M]  3.98
19. FSEQRETSAKVNWMPPPSRADSFK [I4Q]  3.89
20. FSEIRETSAKVNWMPPDSRADSFK [P17D]  3.84
21. FSEIRETSAKVNWMPPGSRADSFK [P17G]  3.81
22. FSEIRETQAKVNWMPPPSRADSFK [S8Q]  3.76
23. FSEIRETSAKVNWMPPPSRAKSFK [D21K]  3.76
24. FSEIRETSAKVNWMPPPSRCDSFK [A20C]  3.71
25. FSEIRETSAKVNWMPPASRADSFK [P17A]  3.65
26. FSEIRETSAKVNWMPPPSRASSFK [D21S]  3.62
27. FSEIRETSAKVNWMPPPSRADDFK [S22D]  3.62
28. FSEIRETSAKVNWMPPPSRRDSFK [A20R]  3.61
29. FSEIRETSAKVNWMPPPSRADKFK [S22K]  3.58
30. FSEIRETSAKVNWMPPPSRADSQK [F23Q]  3.58
31. FSEVRETSAKVNWMPPPSRADSFK [I4V]  3.56
32. FSEIRETSAKVNWMPPPSRARSFK [D21R]  3.52
33. FSENRETSAKVNWMPPPSRADSFK [I4N]  3.51
34. FSEIRETSAKVNWMPPPSRAQSFK [D21Q]  3.5
35. FSEIRETSAKNNWMPPPSRADSFK [V11N]  3.45
36. FSEIRETSAKVNWMPPKSRADSFK [P17K]  3.43
37. FSELRETSAKVNWMPPPSRADSFK [I4L]  3.42
38. FSEIRETHAKVNWMPPPSRADSFK [S8H]  3.4
39. FSEIRETSAKGNWMPPPSRADSFK [V11G]  3.38
40. FSEIRETSAKVNWMPPPSRADNFK [S22N]  3.38
41. FSEIRETSHKVNWMPPPSRADSFK [A9H]  3.36
42. FSEIRETSAKVNWMPPISRADSFK [P17I]  3.36
43. FSEIRETSAKVNWMPPPSRADPFK [S22P]  3.36
44. FSEIRETSAKVNWMPPNSRADSFK [P17N]  3.35
45. FSEIRETSAKVNWMPPPSRANSFK [D21N]  3.34
46. FSEIRETSPKVNWMPPPSRADSFK [A9P]  3.33
47. FSEIRETSAKVNWMPKPSRADSFK [P16K]  3.33
48. FSEIRETSAKVNWMPPPSRADSFQ [K24Q]  3.33
49. FSEIRETSMKVNWMPPPSRADSFK [A9M]  3.32
50. FSEIRETSAKVNWMPPPSRADSWK [F23W]  3.32
51. FSEIRETSAKLNWMPPPSRADSFK [V11L]  3.29
52. FSEIRETSAKVNWMPPPSRADCFK [S22C]  3.29
53. FSEIRETSAKVNWMPPPSRADSFR [K24R]  3.29
54. FSEIRETSAKVNWMPPPSRADSFS [K24S]  3.29
55. FSEIRETSAKVNWMPPPSRADSGK [F23G]  3.24
56. FSEIRETSAKVNWMPPVSRADSFK [P17V]  3.23
57. FSEIRETSAKVNWMPPPSRADSFE [K24E]  3.21
58. FSEIRETSAKMNWMPPPSRADSFK [V11M]  3.17
59. FSEIRETSAKVNWMPPPSRAASFK [D21A]  3.17
60. FSEIRETGAKVNWMPPPSRADSFK [S8G]  3.15
61. FSEIRETSAKCNWMPPPSRADSFK [V11C]  3.15
62. FSEIRETSAKVNWMPIPSRADSFK [P16I]  3.15
63. FSEIRETSAKVNWMPPPSRAHSFK [D21H]  3.13
64. FSEIRETVAKVNWMPPPSRADSFK [S8V]  3.1
65. FSEIRETSAKVNWMPHPSRADSFK [P16H]  3.05
66. FSEIRETSAKVNWMPDPSRADSFK [P16D]  3.03
67. FSEIRETSKKVNWMPPPSRADSFK [A9K]  3
68. FSEIRETSAKFNWMPPPSRADSFK [V11F]  2.97
69. FSEIRETSAKVNWMPPMSRADSFK [P17M]  2.97
70. FSEYRETSAKVNWMPPPSRADSFK [I4Y]  2.94
71. FSEFRETSAKVNWMPPPSRADSFK [I4F]  2.9
72. FSEIRETSAKVNWMPPPSRLDSFK [A20L]  2.9
73. FSEIRETSAKVNWMPMPSRADSFK [P16M]  2.89
74. FSEIRETSAKVNWMPNPSRADSFK [P16N]  2.89
75. FSEIRETSAKVNWMPRPSRADSFK [P16R]  2.87
76. FSEIRETSAKVNWMPPLSRADSFK [P17L]  2.86
77. FSEIRETSAKVNWMPGPSRADSFK [P16G]  2.8
78. FSEIRETSAKVNWMPPPSRMDSFK [A20M]  2.79
79. FSEIRETSAKVNWMPPPSRACSFK [D21C]  2.79
80. FSEIRETSAKVNWMPPPSRADMFK [S22M]  2.79
81. FSEIRETRAKVNWMPPPSRADSFK [S8R]  2.74
82. FSEIRETSAKVNWMPPPSRFDSFK [A20F]  2.73
83. FSEIRETSAKVNWMPPPSRADSFH [K24H]  2.73
84. FSEIRETSAKVNWMPFPSRADSFK [P16F]  2.67
85. FSEIRETSAKVNWMPYPSRADSFK [P16Y]  2.67
86. FSEIRETSAKVNWMPPPSRADSFV [K24V]  2.63
87. FSEIRETFAKVNWMPPPSRADSFK [S8F]  2.51
88. FSEIRETSAKVNWMPPPSRADSFF [K24F]  2.47
89. FSEIRETSAKVNWMPPPSRVDSFK [A20V]  2.46
90. FSEIRETSAKVNWMPPPSRADSFI [K24I]  2.44
91. FSEIRETSAKVNWMPPPSRADFFK [S22F]  2.39
92. FSEIRETSCKVNWMPPPSRADSFK [A9C]  2.38
93. FSEWRETSAKVNWMPPPSRADSFK [I4W]  1.9
94. FSEIRETSAKVNWMPPPSRADSFW [K24W]  1.69
